Measurements taken from paper PMC2814086 (Molecular Microbiology, 2009).

Target: the molecule itself
Assay: mass spectrometry

B1: MinE-His (wild-type MinE with a His tag, plasmid pSOT13 [PT7::minE-his]) (natural protein, E. coli, UniProt P0A734 1-88, looked up)
chain: MALLDFFLSRKKNTANIAKERLQIIVAERRRSDAEPHYLPQLRKDILEVICKYVQIDPEMVTVQLEQKDGDISILELNVTLPEAEELK
stoichiometry N: 2
